Measured values from paper PMC9377797, “Hypoxia-induced proteasomal degradation of DBC1 by SIAH2 in breast cancer progression” (eLife, 2022).

Assays:
[1] = biological target: T1, His-DBC1 (human, UniProt Q8N163 1-923); assay: pull-down; GST-SIAH2 and His-DBC1 proteins from E. coli incubated in vitro overnight, GST beads for 2 hr at 4°C; blotted with an anti-DBC1 antibody; settings: both partners purified
T1 construct: Deleted in breast cancer 1 (DBC1, CCAR2), human; also called His-tagged DBC1; source: E. coli BL21, purified
T1 sequence (Q8N163 whole entry): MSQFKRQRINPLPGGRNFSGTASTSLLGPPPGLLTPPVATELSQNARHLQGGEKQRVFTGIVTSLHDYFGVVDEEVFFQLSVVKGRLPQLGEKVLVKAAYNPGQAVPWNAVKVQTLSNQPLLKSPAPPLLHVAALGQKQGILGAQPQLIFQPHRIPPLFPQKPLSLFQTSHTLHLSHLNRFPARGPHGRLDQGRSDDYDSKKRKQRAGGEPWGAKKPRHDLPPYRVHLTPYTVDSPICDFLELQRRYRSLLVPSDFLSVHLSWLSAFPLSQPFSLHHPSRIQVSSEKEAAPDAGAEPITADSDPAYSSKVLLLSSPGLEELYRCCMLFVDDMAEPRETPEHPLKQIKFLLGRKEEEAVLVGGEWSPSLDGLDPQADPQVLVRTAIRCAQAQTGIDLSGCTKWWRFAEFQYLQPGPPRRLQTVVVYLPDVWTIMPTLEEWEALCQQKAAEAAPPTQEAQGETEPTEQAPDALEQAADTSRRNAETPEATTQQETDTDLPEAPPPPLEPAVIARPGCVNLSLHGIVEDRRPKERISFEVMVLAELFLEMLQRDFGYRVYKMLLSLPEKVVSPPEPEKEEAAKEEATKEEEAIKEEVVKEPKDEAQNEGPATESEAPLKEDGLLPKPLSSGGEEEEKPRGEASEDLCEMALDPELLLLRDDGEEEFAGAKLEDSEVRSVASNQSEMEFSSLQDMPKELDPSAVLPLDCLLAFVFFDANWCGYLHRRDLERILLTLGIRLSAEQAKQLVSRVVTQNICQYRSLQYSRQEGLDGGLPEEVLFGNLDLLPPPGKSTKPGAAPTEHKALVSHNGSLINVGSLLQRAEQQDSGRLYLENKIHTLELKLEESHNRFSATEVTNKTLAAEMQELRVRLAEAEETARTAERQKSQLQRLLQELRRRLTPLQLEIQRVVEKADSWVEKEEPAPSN

[2] = biological target: T2, N-terminal half of His-DBC1 (1–461) (human, UniProt Q8N163 1-461); assay: as above; settings: both partners purified
T2 construct: source: bacterially expressed (E. coli)
T2 sequence (Q8N163 1-461): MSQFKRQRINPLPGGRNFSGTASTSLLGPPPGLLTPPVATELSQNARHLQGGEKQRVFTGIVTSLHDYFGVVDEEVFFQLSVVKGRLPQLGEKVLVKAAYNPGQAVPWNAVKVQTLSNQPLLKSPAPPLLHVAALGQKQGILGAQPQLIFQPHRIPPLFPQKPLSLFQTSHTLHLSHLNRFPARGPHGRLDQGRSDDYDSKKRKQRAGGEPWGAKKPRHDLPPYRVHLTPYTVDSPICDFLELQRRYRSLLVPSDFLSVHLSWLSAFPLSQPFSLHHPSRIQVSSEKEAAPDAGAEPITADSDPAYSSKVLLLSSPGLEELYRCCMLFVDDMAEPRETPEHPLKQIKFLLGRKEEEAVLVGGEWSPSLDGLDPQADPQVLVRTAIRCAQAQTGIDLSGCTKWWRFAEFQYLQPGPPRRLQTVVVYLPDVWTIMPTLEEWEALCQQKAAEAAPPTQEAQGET

B1: GST-SIAH2 (enzyme, human, UniProt O43255 1-324, looked up)
chain: MSRPSSTGPSANKPCSKQPPPQPQHTPSPAAPPAAATISAAGPGSSAVPAAAAVISGPGGGGGAGPVSPQHHELTSLFECPVCFDYVLPPILQCQAGHLVCNQCRQKLSCCPTCRGALTPSIRNLAMEKVASAVLFPCKYATTGCSLTLHHTEKPEHEDICEYRPYSCPCPGASCKWQGSLEAVMSHLMHAHKSITTLQGEDIVFLATDINLPGAVDWVMMQSCFGHHFMLVLEKQEKYEGHQQFFAIVLLIGTRKQAENFAYRLELNGNRRRLTWEATPRSIHDGVAAAIMNSDCLVFDTAIAHLFADNGNLGINVTISTCCP
notes: E3 ubiquitin ligase SIAH2, human, wild type; also called GST-tagged SIAH2; purified glutathione S-transferase (GST) SIAH2; source: E. coli BL21, purified
B1: binds [1]; binds [2].
